# Results from patent US20250326807A1, “CALPROTECTIN BINDING PEPTIDES” (Buehlmann Laboratories AG, priority 2022, published 2025).
# T1: Recombinantly expressed fused calprotectin (His6-linker-S100A9-linker-S100A8), product code B-RCAL, BÜHLMANN Laboratories AG (human), P06702
# T1 chain: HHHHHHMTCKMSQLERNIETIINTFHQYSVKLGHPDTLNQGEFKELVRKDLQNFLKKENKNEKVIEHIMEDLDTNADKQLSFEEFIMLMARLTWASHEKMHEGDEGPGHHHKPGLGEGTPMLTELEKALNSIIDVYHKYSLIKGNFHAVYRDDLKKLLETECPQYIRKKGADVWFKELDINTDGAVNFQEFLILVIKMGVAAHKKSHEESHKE
# Target: T1, Recombinantly expressed fused …
# Experiment: fluorescence polarization
# Settings: modification not given
row,Kd [nM],Binder
1,39,RSPESAAFPMFQSHWYSG
2,28,RSAESVAFPMFQSHWYSG
3,27,RSPESVAFPMFASHWYSG
4,32,ASPESVAFPMFQSHWYSG
5,32,ACPECVAFPMFQCHWYCG
6,31,RSPESVAFPMFQSHWYSA
7,30,RSPESVAFAMFQSHWYSG
8,24,RSPESVAFPMFQSHAYSG
9,31,RCPECVAFPMFQCHWYCA

# Continued, binder first:
row,Binder,Kd [nM]
1,RCPECVGFPMFQCHWYCG,29
2,RSPESVGFPMFQSHWYSG,29
3,RCAECVAFPMFQCHWYCG,28
4,RCPECAAFPMFQCHWYCG,39
5,RCPECVAFPMFQCHAYCG,24
6,RCPECVAFAMFQCHWYCG,30
7,RCPECVAFPMFACHWYCG,27
8,RSPASVAFPMFQSHWYSG,26
9,RCPACVAFPMFQCHWYCG,26

# Target: T1, Recombinantly expressed fused …
# Experiment: SPR
# Settings: modification not given
row,Kd [nM],Binder
1,> 10000,RCPECVAYPMFQCHWYCG [F8 Tyr]
2,> 10000,RCPECVAAPMFQCHWYCG [F8 L-Ala]
3,> 10000,RCPECVAEPMFQCHWYCG [F8 Glu]

# The remaining lines, values behind:
row,Binder,Kd [nM]
1,RCPECVAFPMEQCHWYCG [F11 Glu],> 10000
2,RCPECVAFPMAQCHWYCG [F11 L-Ala],> 10000
3,RCPECVAFPMQQCHWYCG [F11 Gln],> 10000
4,RCPECVAFPMFQCAWYCG [H14 L-Ala],> 10000
5,RCPECVAFPMKQCHWYCG [F11 Lys],> 10000
6,RCPECVAFPMIQCHWYCG [F11 Ile],> 10000
7,RCPECVAQPMFQCHWYCG [F8 Gln],> 10000
8,RCPECVAFPMFQCHWACG [Y16 L-Ala],> 10000
9,RCPECVAIPMFQCHWYCG [F8 Ile],> 10000
